Publication PMC2955198 (Cell, 2010)
Where “and” joins values, the source holds several entries; their conditions need not be identical. Equal entries are not always repeated.

B2: Mtw1 (subunit of the purified MIND complex) (natural protein, S. cerevisiae, UniProt P39731 1-289, looked up)
chain: MSAPTMRSTSILTEHLGYPPISLVDDIINAVNEIMYKCTAAMEKYLLSKSKIGEEDYGEEIKSGVAKLESLLENSVDKNFDKLELYVLRNVLRIPEEYLDANVFRLENQKDLVIVDENELKKSEEKLREKVNDVELAFKKNEMLLKRVTKVKRLLFTIRGFKQKLNELLKCKDDVQLQKILESLKPIDDTMTLLTDSLRKLYVDSESTSSTEEVEALLQRLKTNGKQNNKDFRTRYIDIRTNNVLRKLGLLGDKEDEKQSAKPDARTQAGDIVSIDIEEPQLDLLDDVL

Experiments:
[1] = target: Pcs1 85-222 (S. pombe) (UniProt O13684); assay: AUC
[2] = target: S. pombe Pcs1 full-length (S. pombe) (UniProt O13684); assay: AUC
[3] = target: T1, Csm1 1-181 (S. cerevisiae, UniProt P25651 1-181); assay: AUC
T1 sequence (looked up): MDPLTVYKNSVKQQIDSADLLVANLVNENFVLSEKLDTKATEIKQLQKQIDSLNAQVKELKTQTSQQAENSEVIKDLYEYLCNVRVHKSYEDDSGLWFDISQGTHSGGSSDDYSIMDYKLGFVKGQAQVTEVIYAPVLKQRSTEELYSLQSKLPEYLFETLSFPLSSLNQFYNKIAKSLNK

[4] = target: B2; assay: co-purification of a recombinant complex
[5] = target: T2, Dsn1 (subunit of the purified MIND complex) (S. cerevisiae, UniProt P40568 1-576); assay: co-purification of a recombinant complex
T2 sequence (looked up): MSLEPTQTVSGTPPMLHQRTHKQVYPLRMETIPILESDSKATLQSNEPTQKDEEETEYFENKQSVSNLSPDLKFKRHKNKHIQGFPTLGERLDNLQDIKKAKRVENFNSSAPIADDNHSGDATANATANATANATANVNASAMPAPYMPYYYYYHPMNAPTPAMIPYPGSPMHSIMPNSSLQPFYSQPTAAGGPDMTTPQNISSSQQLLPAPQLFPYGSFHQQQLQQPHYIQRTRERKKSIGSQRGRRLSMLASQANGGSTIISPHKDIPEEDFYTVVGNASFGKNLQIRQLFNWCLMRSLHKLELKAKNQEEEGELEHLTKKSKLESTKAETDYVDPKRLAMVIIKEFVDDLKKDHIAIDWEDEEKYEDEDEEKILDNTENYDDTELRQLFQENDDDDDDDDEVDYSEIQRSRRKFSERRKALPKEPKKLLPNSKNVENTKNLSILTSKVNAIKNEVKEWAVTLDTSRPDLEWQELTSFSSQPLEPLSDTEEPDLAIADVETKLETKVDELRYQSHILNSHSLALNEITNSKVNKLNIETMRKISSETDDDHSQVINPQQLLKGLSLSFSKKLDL

[6] = target: T3, Csm1/Lrs4 complex (S. cerevisiae, UniProt P25651 1-190; Q04087 1-347); assay: SEC
T3 sequence (looked up) 1: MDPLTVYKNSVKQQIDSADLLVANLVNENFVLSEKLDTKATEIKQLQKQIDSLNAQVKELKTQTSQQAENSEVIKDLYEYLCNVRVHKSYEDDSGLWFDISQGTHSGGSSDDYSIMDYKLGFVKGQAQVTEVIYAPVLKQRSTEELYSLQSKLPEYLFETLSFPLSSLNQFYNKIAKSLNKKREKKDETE
T3 sequence (looked up) 2: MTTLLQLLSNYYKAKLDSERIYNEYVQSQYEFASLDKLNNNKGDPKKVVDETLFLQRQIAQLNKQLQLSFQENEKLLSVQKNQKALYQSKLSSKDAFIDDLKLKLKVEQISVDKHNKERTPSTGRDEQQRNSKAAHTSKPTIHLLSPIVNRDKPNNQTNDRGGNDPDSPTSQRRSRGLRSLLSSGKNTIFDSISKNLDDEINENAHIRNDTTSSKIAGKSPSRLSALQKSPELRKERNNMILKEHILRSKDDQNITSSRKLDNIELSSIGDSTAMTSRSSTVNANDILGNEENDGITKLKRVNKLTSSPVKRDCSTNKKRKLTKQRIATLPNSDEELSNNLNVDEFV

[7] = target: T4, S. cerevisiae Csm1 full-length (S. cerevisiae, UniProt P25651 1-190); assay: AUC
T4 sequence (looked up): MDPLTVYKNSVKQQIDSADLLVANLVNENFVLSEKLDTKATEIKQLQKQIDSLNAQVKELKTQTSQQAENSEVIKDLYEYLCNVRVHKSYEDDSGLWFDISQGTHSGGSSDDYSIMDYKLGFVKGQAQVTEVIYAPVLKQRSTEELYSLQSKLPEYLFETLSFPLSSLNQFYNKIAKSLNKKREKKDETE

In the case of “Pcs1 85-222 (from UniProt O13684 85-222) (domain or fragment)”, the stoichiometry N [1] is reported as 2.

In the case of “S. pombe Pcs1 full-length (from UniProt O13684 1-261) (natural protein)”, the stoichiometry N [2] is reported as 2.

TTLLQLLSNYYKAKLDSERIYNEYVQSQY (peptide, UniProt Q04087 2-30, looked up) [peptide containing Lrs4 residues 2-30] was tested, and the “stoichiometry N” value [3] was 4 copies of Csm1 in the complex and 2 copies of Lrs4 in the complex.

B1: Nnf1 (subunit of the purified MIND complex) (natural protein, S. cerevisiae, UniProt P47149 1-201, looked up)
chain: MVNSHGIRYIRLKQVFNRALDQSISKLQSWDKVSSCFPQYVNSKQGAINVANCQRQLTEFWTELCQREFKEIMEERNVEQKLNELDELILEAKERYTDRDQDEVNKGPAIDELSSKELVECHLYSQRMHAIHEIDERLAKVNEMNDQLAQELKDLETQVEVEKNEIGKMYDEYLGSHTDQPANVLLVQSLNDMVLELKENY
B1: binds [4].

B2: binds [5].

B3: purified four-protein MIND (Mtw1 including Nsl1, Nnf1, and Dsn1) kinetochore complex (complex, S. cerevisiae)
chain 1: MSAPTMRSTSILTEHLGYPPISLVDDIINAVNEIMYKCTAAMEKYLLSKSKIGEEDYGEEIKSGVAKLESLLENSVDKNFDKLELYVLRNVLRIPEEYLDANVFRLENQKDLVIVDENELKKSEEKLREKVNDVELAFKKNEMLLKRVTKVKRLLFTIRGFKQKLNELLKCKDDVQLQKILESLKPIDDTMTLLTDSLRKLYVDSESTSSTEEVEALLQRLKTNGKQNNKDFRTRYIDIRTNNVLRKLGLLGDKEDEKQSAKPDARTQAGDIVSIDIEEPQLDLLDDVL
chain 2: MSQGQSKKLDVTVEQLRSIYHQFHDILEEKTDLHLPKKEYDDDAVRREVQIQLQEFLLSAMTMASKSLEVVNADTVGKTVKQLIMESQEKYMEPFDLDLNEQVRKMYQEWEDETVKVAQLRQTGPAKINEVYNNSKDEYLAQLDGRIGVLQARMMQQQSADHDDSTDDADDHINWEHIKQDYVASLNELYQTQQDLPKVRYNVEKVKRLMDFLEED
chain 3: MVNSHGIRYIRLKQVFNRALDQSISKLQSWDKVSSCFPQYVNSKQGAINVANCQRQLTEFWTELCQREFKEIMEERNVEQKLNELDELILEAKERYTDRDQDEVNKGPAIDELSSKELVECHLYSQRMHAIHEIDERLAKVNEMNDQLAQELKDLETQVEVEKNEIGKMYDEYLGSHTDQPANVLLVQSLNDMVLELKENY
chain 4: MSLEPTQTVSGTPPMLHQRTHKQVYPLRMETIPILESDSKATLQSNEPTQKDEEETEYFENKQSVSNLSPDLKFKRHKNKHIQGFPTLGERLDNLQDIKKAKRVENFNSSAPIADDNHSGDATANATANATANATANVNASAMPAPYMPYYYYYHPMNAPTPAMIPYPGSPMHSIMPNSSLQPFYSQPTAAGGPDMTTPQNISSSQQLLPAPQLFPYGSFHQQQLQQPHYIQRTRERKKSIGSQRGRRLSMLASQANGGSTIISPHKDIPEEDFYTVVGNASFGKNLQIRQLFNWCLMRSLHKLELKAKNQEEEGELEHLTKKSKLESTKAETDYVDPKRLAMVIIKEFVDDLKKDHIAIDWEDEEKYEDEDEEKILDNTENYDDTELRQLFQENDDDDDDDDEVDYSEIQRSRRKFSERRKALPKEPKKLLPNSKNVENTKNLSILTSKVNAIKNEVKEWAVTLDTSRPDLEWQELTSFSSQPLEPLSDTEEPDLAIADVETKLETKVDELRYQSHILNSHSLALNEITNSKVNKLNIETMRKISSETDDDHSQVINPQQLLKGLSLSFSKKLDL
With B3 the “stoichiometry N” value [6] was ≤ 4 MIND complexes per Csm1/Lrs4 complex.

B4: Lrs4 1-130 (domain or fragment, S. cerevisiae, UniProt Q04087 1-130, looked up)
chain: MTTLLQLLSNYYKAKLDSERIYNEYVQSQYEFASLDKLNNNKGDPKKVVDETLFLQRQIAQLNKQLQLSFQENEKLLSVQKNQKALYQSKLSSKDAFIDDLKLKLKVEQISVDKHNKERTPSTGRDEQQR
B4 was tested, and the “stoichiometry N” value [7] was 4 copies of Csm1 in the complex and 2 copies of Lrs4 in the complex.
